We go through 1 molecule from publication PMC10148413, “Caf1 regulates the histone methyltransferase activity of Ash1 by sensing unmodified histone H3” (Epigenetics & Chromatin, 2023).

One experiment addresses T1, Fly Caf1 wild-type (fly, UniProt Q24572 1-430).
T1 construct: Caf1 (p55/Nurf55), fly; The same paragraph speaks of 'full-length Caf1' for the AMC co-expression; probably full length here too; also called p55; Nurf55; source: Sf9 cells (baculovirus), purified (Ni-NTA, HiTrap Q HP, Superdex 200); not shown: His6, N-terminal, cleaved
Kind of experiment: pull-down; GST-Ash1 fragments held on GST resin; 200 µL of 0.1 mg/mL purified Caf1 added for 1 h; 150 mM NaCl, 50 mM Tris-HCl (8.0); bound proteins analysed by SDS-PAGE. Particulars: both partners purified.

The target in experiment [1] is T2, Fly Caf1 H3 binding pocket mutant (E235Q/D252K/E279Q) (fly, UniProt Q24572 1-430, E235Q | D252K | E279Q).
T2 construct: In the functional row this mutant stood as a subunit of the AMC complex (AMC mut); source: Sf9 cells (baculovirus), purified (Ni-NTA, HiTrap Q HP, Superdex 200); not shown: His6, N-terminal, cleaved
T2 sequence (Q24572 whole entry E235Q/D252K/E279Q): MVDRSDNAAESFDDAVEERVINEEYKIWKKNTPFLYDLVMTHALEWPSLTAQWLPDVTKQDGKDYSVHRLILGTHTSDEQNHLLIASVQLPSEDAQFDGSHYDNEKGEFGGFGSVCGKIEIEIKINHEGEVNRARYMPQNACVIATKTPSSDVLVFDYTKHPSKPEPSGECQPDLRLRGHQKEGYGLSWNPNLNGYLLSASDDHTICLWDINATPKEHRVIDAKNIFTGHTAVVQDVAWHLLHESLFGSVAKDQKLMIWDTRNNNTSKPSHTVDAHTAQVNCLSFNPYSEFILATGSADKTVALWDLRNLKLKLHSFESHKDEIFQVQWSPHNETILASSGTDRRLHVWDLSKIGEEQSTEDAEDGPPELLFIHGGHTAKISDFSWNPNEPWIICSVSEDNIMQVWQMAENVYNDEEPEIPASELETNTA
The experiment is described as above. Particulars: both partners purified.

T1 sequence (Q24572 whole entry): as the sequence (Q24572 whole entry E235Q/D252K/E279Q) above, with Q235E, K252D, Q279E counted along it

B1: GST-CBM (Ash1 Caf1 Binding Motif, 1582–1616) (domain or fragment, fly, UniProt Q9VW15 1582-1616, looked up)
chain: AKLQPLSEKEKKLVRQFNTFLVRNFEKIRRCKAKR
notes: Vector pGEX-4T-1; also called Ash1_C1.6; Ash1_CBM
In the case of B1, the binding result (with Fly Caf1 wild-type; in experiment [1]) was “binds” throughout.
